Here are results for 1 substance from paper PMC5114395.

This experiment has as its target Ku heterodimer (Ku70 and Ku80) (UniProt P12956).
UniProt P12956, sequence (P12956 whole entry, chain 1 of 2): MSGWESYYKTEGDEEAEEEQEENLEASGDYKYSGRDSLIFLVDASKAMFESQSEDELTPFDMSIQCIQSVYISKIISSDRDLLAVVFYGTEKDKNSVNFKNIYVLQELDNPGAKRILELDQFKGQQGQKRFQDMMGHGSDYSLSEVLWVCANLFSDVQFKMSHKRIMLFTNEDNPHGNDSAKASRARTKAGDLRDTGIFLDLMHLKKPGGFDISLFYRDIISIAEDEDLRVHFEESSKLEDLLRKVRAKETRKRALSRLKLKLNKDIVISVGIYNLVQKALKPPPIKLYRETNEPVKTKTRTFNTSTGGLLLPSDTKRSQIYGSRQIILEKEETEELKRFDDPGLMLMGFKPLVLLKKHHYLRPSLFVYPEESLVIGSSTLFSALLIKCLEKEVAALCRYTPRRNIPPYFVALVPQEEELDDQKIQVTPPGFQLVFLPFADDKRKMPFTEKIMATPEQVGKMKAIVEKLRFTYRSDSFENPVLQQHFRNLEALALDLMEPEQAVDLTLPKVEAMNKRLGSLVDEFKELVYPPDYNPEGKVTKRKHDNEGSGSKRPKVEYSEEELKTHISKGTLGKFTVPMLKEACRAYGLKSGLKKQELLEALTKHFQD
UniProt P12956, sequence (P13010 whole entry, chain 2 of 2, further chain): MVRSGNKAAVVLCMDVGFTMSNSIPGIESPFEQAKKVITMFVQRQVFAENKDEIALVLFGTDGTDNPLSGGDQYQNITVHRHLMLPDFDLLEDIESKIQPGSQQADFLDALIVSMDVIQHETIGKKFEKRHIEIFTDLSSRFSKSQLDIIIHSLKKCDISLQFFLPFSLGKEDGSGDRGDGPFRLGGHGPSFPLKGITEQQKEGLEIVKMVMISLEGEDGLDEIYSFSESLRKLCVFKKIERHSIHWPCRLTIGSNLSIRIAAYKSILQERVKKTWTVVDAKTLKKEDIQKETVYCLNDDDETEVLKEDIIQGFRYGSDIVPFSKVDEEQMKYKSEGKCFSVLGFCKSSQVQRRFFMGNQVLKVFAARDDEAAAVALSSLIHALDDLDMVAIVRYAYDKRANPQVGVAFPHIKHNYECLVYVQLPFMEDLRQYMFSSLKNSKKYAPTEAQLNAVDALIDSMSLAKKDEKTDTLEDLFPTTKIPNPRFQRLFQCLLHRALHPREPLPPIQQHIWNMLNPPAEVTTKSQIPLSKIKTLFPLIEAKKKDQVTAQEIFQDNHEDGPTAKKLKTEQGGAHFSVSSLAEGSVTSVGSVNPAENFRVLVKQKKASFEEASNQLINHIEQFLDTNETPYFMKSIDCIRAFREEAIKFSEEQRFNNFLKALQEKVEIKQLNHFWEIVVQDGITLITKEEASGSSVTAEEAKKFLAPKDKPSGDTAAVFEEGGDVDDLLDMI

As to “PAXX (paralog of XRCC4 and XLF) (from UniProt Q9BUH6 1-204) (natural protein)”, the NHEJ efficiency of blunt-ended DNA with Ku, DNA-PKcs, Artemis, X4·LIV and Pol μ, without or with 500 nM PAXX (Fig. 7B, lanes 12–15) came out at 2 fold.
